# Measured values published in the Human Domainome abundance scans (Beltran et al. 2025).
# ± gives the uncertainty stated by the source.
# Assay: abundance fitness (aPCA) (normalised: wild type 0, dead -1); higher = more abundant; growth selection in yeast, the domain comes from the species named
# Details: Saccharomyces cerevisiae (strain ATCC 204508 / S288c)
row,Substance,abundance fitness
1,"E3 ubiquitin-protein ligase RSP5 Q365R, P39940",0.014 ± 0.043
2,"E3 ubiquitin-protein ligase RSP5 L333H, P39940",-0.451 ± 0.07
3,"E3 ubiquitin-protein ligase RSP5 R340I, P39940",0.002 ± 0.087
4,"E3 ubiquitin-protein ligase RSP5 R346E, P39940",0.414 ± 0.06
5,"E3 ubiquitin-protein ligase RSP5 P362W, P39940",-1.21 ± 0.062
6,"E3 ubiquitin-protein ligase RSP5 N353E, P39940",-0.149 ± 0.06
7,"E3 ubiquitin-protein ligase RSP5 E332Q, P39940",-0.359 ± 0.061
8,"E3 ubiquitin-protein ligase RSP5 L330Q, P39940",-0.024 ± 0.053
9,"E3 ubiquitin-protein ligase RSP5 L330K, P39940",-0.023 ± 0.056
10,"E3 ubiquitin-protein ligase RSP5 F341N, P39940",0.189 ± 0.11
11,"E3 ubiquitin-protein ligase RSP5 D361L, P39940",-0.641 ± 0.056
12,"E3 ubiquitin-protein ligase RSP5 W337C, P39940",-0.4 ± 0.087
13,"E3 ubiquitin-protein ligase RSP5 E338Q, P39940",-0.027 ± 0.065
14,"E3 ubiquitin-protein ligase RSP5 E332W, P39940",-0.493 ± 0.046
15,"E3 ubiquitin-protein ligase RSP5 Y348Q, P39940",-0.637 ± 0.054
16,"E3 ubiquitin-protein ligase RSP5 R346V, P39940",0.056 ± 0.049
17,"E3 ubiquitin-protein ligase RSP5 W337F, P39940",-0.045 ± 0.093
18,"E3 ubiquitin-protein ligase RSP5 T327P, P39940",-0.258 ± 0.068
19,"E3 ubiquitin-protein ligase RSP5 G324T, P39940",-0.04 ± 0.11
20,"E3 ubiquitin-protein ligase RSP5 W359Y, P39940",0.171 ± 0.08
21,"E3 ubiquitin-protein ligase RSP5 Y348S, P39940",-0.738 ± 0.077
22,"E3 ubiquitin-protein ligase RSP5 W359E, P39940",-0.271 ± 0.071
23,"E3 ubiquitin-protein ligase RSP5 V350Q, P39940",-0.295 ± 0.066
24,"E3 ubiquitin-protein ligase RSP5 E344W, P39940",-0.338 ± 0.046
25,"E3 ubiquitin-protein ligase RSP5 R346F, P39940",-0.042 ± 0.069
26,"E3 ubiquitin-protein ligase RSP5 D351M, P39940",-0.772 ± 0.13

row,Substance,abundance fitness
1,"E3 ubiquitin-protein ligase RSP5 T356M, P39940",-0.005 ± 0.066
2,"E3 ubiquitin-protein ligase RSP5 T357E, P39940",-0.477 ± 0.058
3,"E3 ubiquitin-protein ligase RSP5 T327W, P39940",-0.17 ± 0.053
4,"E3 ubiquitin-protein ligase RSP5 H352R, P39940",-0.253 ± 0.046
5,"E3 ubiquitin-protein ligase RSP5 F341P, P39940",-0.669 ± 0.082
6,"E3 ubiquitin-protein ligase RSP5 G329A, P39940",0.037 ± 0.044
7,"E3 ubiquitin-protein ligase RSP5 G345K, P39940",0.148 ± 0.11
8,"E3 ubiquitin-protein ligase RSP5 G336I, P39940",-1.3 ± 0.13
9,"E3 ubiquitin-protein ligase RSP5 S335R, P39940",-0.129 ± 0.051
10,"E3 ubiquitin-protein ligase RSP5 G324E, P39940",0.216 ± 0.071
11,"E3 ubiquitin-protein ligase RSP5 R363Q, P39940",-0.367 ± 0.06
12,"E3 ubiquitin-protein ligase RSP5 E338N, P39940",-0.501 ± 0.09
13,"E3 ubiquitin-protein ligase RSP5 G331Y, P39940",-0.202 ± 0.17
14,"E3 ubiquitin-protein ligase RSP5 G329N, P39940",0.1 ± 0.069
15,"E3 ubiquitin-protein ligase RSP5 T342M, P39940",-0.327 ± 0.17
16,"E3 ubiquitin-protein ligase RSP5 Q365A, P39940",0.097 ± 0.044
17,"E3 ubiquitin-protein ligase RSP5 V350F, P39940",0.044 ± 0.13
18,"E3 ubiquitin-protein ligase RSP5 E338L, P39940",-0.499 ± 0.044
19,"E3 ubiquitin-protein ligase RSP5 S328V, P39940",-0.07 ± 0.055
20,"E3 ubiquitin-protein ligase RSP5 E338H, P39940",-0.349 ± 0.1
21,"E3 ubiquitin-protein ligase RSP5 E338A, P39940",-0.333 ± 0.056
22,"E3 ubiquitin-protein ligase RSP5 R364E, P39940",0.129 ± 0.052
23,"E3 ubiquitin-protein ligase RSP5 H352Q, P39940",-0.19 ± 0.086
24,"E3 ubiquitin-protein ligase RSP5 R363W, P39940",-0.511 ± 0.06
25,"E3 ubiquitin-protein ligase RSP5 D361P, P39940",-0.516 ± 0.12
26,"E3 ubiquitin-protein ligase RSP5 T327C, P39940",-0.001 ± 0.06
